For test [1], the system named is TNF-induced relocalisation of EYFP-TRADD (TNFR1-containing complex I) in HeLa cells. In words: TNF-mediated relocation of fluorescently tagged TRADD in Clone #49-E2 HeLa cells, 384-well (Example 2). The test is classed as cell-based, human. Conditions: added instead of TNF; FIG. 12. The procedure: The following experimental procedure to detect the reporter molecule in the presence of absence of a “test” compound (or molecule, as described below) was conducted.
On day 1, 10^3 cells per well were plated in thin glass bottom 384 wells plate in 50 μl of culture media (DMEM glutamax, 10% FBS, peni-strep, geneticin, hygromycin). The cells were incubated overnight at 37° C. On day 2, media was aspirated, and 35 μl of warm DMEM, 2, 5% FBS, HEPES 10 mM added. Then, 15 μl of 4× the test compound diluted in DMEM, 2, 5% FBS, HEPES 10 mM was added to cells using a Biomek laboratory automation workstation (Beckman-Coulter). This was incubated at room temperature for 1.5 min. […] The cells were washed three times with PBS 1× using an Embla 384 Cell Washer (Molecular Devices). Cells were fixed by adding PBS 1×, 5% PFA+Hoescht 0.2 μg/ml using a Multidrop 384 dispensor (Thermo Scientific; 30 μl/well) followed by an incubation for 20 min at room temperature in the dark. After a further three washes of the cells with PBS 1× using the Embla 384 Cell Washer, 60 μl per well of PBS 1×, 1% peni-strep was added. The plate was covered with a transparent sealing film. Readings were then taken on the Scientific Cellomics ArrayScan HCS Reader automated microscope system as used in Example 1.

The test system of test [2] is TNF-induced TRADD relocalisation in HeLa TRADD DR3 cells. In words: TNF-induced TRADD-EYFP relocation in HeLa TRADD DR3 recombinant cells (Example 3). The test is classed as cell-based, human. To be noted: in the presence of 100 ng/ml TNF; FIG. 19. An excerpt: (§1) In a further example of the present invention, a method involving the TL1A-activated DR3 receptor was developed. The TRADD-EYFP HeLa clones comprising the TRADD-EYFP reporter molecule transfected into HeLa cells as described in Example 1 was employed. The DR3 receptor (cDNA sequence shown in SEQ ID NO: 19 and encoded protein shown in SEQ ID NO: 20) which had been cloned in the vector pCR3.1 (Invitrogen) was transferred into the vector pTre2 (Clontech) using the Gateway® cloning technique with the primers Attb1 Forward primer (SEQ ID NO: 21) and Attb2 Reverse primer (SEQ ID NO: 22), yielding a pTRE2-DR3 expression vector (SEQ ID NO: 23). This expression vector was then transfected into the TRADD-EYFP HeLa clones to produce a double transformants designated HeLa TRADD DR3.
(§2) Monitoring and quantification of the TRADD-EYFP reporter molecule was conducted as described in Examples 1 and 2 above. […] The data of FIG. 17 are depicted graphically in FIG. 18.

Test [3] has as its target T1, TL1A-activated DR3 receptor (Homo sapiens, UniProt Q93038, P167L).
T1 construct: (N); expressed in transfected cells; host or cells: HeLa Tet-On cells stably expressing TRADD-EYFP, transfected with pTRE2-DR3 (HeLa TRADD DR3)
T1 sequence (Q93038 with tags, fused parts or gaps P167L): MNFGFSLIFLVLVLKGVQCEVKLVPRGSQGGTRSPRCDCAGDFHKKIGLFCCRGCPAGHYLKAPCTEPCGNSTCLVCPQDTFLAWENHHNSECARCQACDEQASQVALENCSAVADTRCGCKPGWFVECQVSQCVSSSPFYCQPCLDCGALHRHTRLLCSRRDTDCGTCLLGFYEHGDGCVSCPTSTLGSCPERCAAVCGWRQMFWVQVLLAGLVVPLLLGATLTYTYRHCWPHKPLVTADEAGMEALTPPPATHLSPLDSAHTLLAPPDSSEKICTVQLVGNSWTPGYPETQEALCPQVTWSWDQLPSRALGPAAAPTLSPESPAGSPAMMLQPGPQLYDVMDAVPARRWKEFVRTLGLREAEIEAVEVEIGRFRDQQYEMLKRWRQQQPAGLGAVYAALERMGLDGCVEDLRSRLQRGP
Kind of test: TL1A-induced TRADD-EYFP relocation in HeLa TRADD DR3 recombinant cells (Example 3). The test is classed as cell-based. Conditions: in the presence of 300 ng/ml TL1A; FIG. 17.
Excerpt: as §1, §2

In test [4] the target is T2, TL1A-activated DR3 receptor (Homo sapiens, UniProt Q93038).
T2 construct: (N); expressed in transfected cells; host or cells: HeLa Tet-On cells stably expressing TRADD-EYFP, transfected with pTRE2-DR3 (HeLa TRADD DR3)
T2 sequence (Q93038 with tags, fused parts or gaps P167L): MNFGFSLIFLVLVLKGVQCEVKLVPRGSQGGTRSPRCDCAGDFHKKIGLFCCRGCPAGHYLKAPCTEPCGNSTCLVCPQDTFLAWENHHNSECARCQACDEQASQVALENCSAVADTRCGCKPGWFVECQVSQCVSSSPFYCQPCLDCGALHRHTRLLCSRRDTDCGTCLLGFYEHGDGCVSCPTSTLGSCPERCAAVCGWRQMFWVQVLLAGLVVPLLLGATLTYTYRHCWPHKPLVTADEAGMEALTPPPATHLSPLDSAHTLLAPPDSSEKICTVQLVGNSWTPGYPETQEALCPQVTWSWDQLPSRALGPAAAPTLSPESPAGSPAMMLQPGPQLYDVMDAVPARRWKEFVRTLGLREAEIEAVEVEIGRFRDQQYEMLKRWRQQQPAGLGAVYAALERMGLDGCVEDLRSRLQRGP
The description is as above. The test is classed as cell-based. Conditions: in the presence of 300 ng/ml TL1A; FIG. 17.
Excerpt: as §1, §2

B1: CD40L: Fc [human]: CD40L [human] from Apotech Corporation (protein)
chain: GDQNPQIAAHVISEASSKTTSVLQWAEKGYYTMSNNLVTLENGKQLTVKRQGLYYIYAQVTFCSNREASSQAPFIASLCLKSPGRFERILLRAANTHSSAKPCGQQSIHLGGVFELQPGASVFVNVTDPSQVSHGTGFTSFGLLKL
modifications: left off: a dimerising Fc or GST
notes: Fc [human]: CD40L [human] from Apotech Corporation
As to B1, in test [1], the “selectivity: relocalisation of the reporter molecule EYFP-TRADD effected by other compounds or molecules” value is listed as “not effected”.

B2: DcR3: DR3 inhibitor; Recombinant Human DcR3/TNFRSF6B/Fc Chimera from R&D Systems (protein)
chain: VAETPTYPWRDAETGERLVCAQCPPGTFVQRPCRRDSPTTCGPCPPRHYTQFWNYLERCRYCNVLCGEREEEARACHATHNRACRCRTGFFAHAGFCLEHASCPPGAGVIAPGTPSQNTQCQPCPPGTFSASSSSSEQCQPHRNCTALGLALNVPGSSSHDTLCTSCTGFPLSTRVPGAEECERAVIDFVAFQDISIKRLQRLLQALEAPEGWGPTPRAGRAALQLKLRRRLTELLGAQDGALLVRLLQALRVARMPGLERSVRERFLPVH
modifications: left off: a dimerising Fc or GST
notes: Recombinant Human DcR3/TNFRSF6B/Fc Chimera from R&D Systems
For the molecule B2, the “dose-dependent inhibition of TNF-induced relocalisation” value in test [2] was “not”. For the same molecule, the “dose-dependent inhibition of TL1A-induced relocalisation” value in test [3] was “dose-dependently inhibited”. Moreover, the “IC50 on TL1A-induced relocalisation” value in test [4] came out at 1.41 µg/mL.

Values taken from patent publication US20110319287A1, “MODULATOR ASSAY” (ADDEX PHARMA S.A., priority 2009, published 2011).
